From publication PMC5159607

Substrate: Oc1ccc2c(c1)OC[C@@]1(O)c3ccc(O)cc3O[C@@H]21
Test: HPLC prenyltransferase assay, recombinant yeast microsomes, Lineweaver-Burk
Assay type: biochemical, Glycine max
Details: 400 µM DMAPP, divalent cation required (Mg2+ preferred), 30 °C, 15 min

B1: G2DT (PT7; ΔTP-PT7) (Glycine max) (protein)
chain: YKKKTQIECNILRSQQSSLNHHYKRIEGGATYQDCDKKYVVKAIPEPTFDSEPCASNPENVVDSAKKILDVFYHFCYPYSMIAIILCAISSSLLAVEKPSDISSSFLIGVLQALVPHLFVAVFANVVNQVFDYEIDKINKPYLPLASGQLSFTTAVFIAASLLIMSFWLSLVIGSWPLIWNVVLTSSVWNVYSINVPLLRWKRHPLLATICTISVWAFILPITFFLHMQTFVLKRPIVFPRSLIFYVVFMIFYSLGMALSKDISDVKGDKAYGIDTLAIRLGQKWVFWICIILFEMAFGVALLAGATSSYLWIKIVTGLGHAILASILLYQAKSIYLSNKVSTISFYMLIWKLLYAAYFLMALIR
  Km: 183 µM
